Drawing on article PMC12548415, this text covers Kd, koff and kon for 1 substance.

Assay in all cases: BLI; virus immobilised on APS probe (Gator Prime), PBS as running buffer; three concentrations (serial dilutions) of RDTfR in PBST (PBS, 0.05% Tween-20) applied; global fit, 1:1 binding model
Test [1] has as its target rRDPV-16 virus (rescued from the infectious cDNA clone pRDPV-16 of raccoon dog parvovirus strain RDPV/CL/2016), capsid of VP2 (raccoon dog parvovirus, strain RDPV/CL/2016).
The target of test [2] is wild-type raccoon dog parvovirus strain RDPV/CL/2016, capsid of VP2 (raccoon dog parvovirus, strain RDPV/CL/2016).
Test [3] deals with wild-type raccoon dog parvovirus strain RDPV/FLD/2010, capsid of VP2 (raccoon dog parvovirus, strain RDPV/FLD/2010).

As a reminder, the Kd is a measure of binding affinity in units of concentration. Low values mean higher affinity, high ones lower affinity. One may read the koff as the rate constant with which the complex falls apart. For orientation: kon means a measure of how fast the partners come together. Turning to “raccoon dog transferrin receptor ectodomain (recombinant RDTfR, from residue 121, C-terminal 6x His)”, the Kd in test [1] came to 56.1 nM; in test [2], 81.1 nM; in test [3] it was 103 nM. The substance further registered a koff in test [1] of 0.00306 s⁻¹. The substance further had a kon in test [1] of 54500 M⁻¹ s⁻¹.
